Assay results as given in patent publication US12404345B2, “Humanized antibodies against iRHOM2” (SCIRHOM GMBH, priority 2021, dated 2025).

What was measured:
[1] = tested on: LPS-induced release of endogenous TNFα; assay: Mouse model for septic shock, LPS-induced TNFα release in serum of genetically humanized mice; format: in vivo; settings: antibody 250 μg/kg in 200 μL PBS injected 1h before LPS 50 μg per mouse; serum 2h after LPS
Experimental: In the following study, ELISA-based TNFα release assays were performed to verify the inhibitory effects of the antibodies of the invention on LPS-induced release of endogenous TNFα in a mouse model for septic shock. The experiment was conducted using genetically humanized mice, in which parts of the mouse genomic iRhom2 DNA (exons which encode for the antibody binding site) were replaced by the corresponding human genomic DNA sequences. All animal experiments were approved by the Institutional Animal Care and Use Committee of the Hospital for Special Surgery and Weill Cornell Medicine.
On day 1, one group of mice was injected with the antibodies of the invention at a concentration of 250 μg/kg in 200 μL PBS. A second group was injected with the same volume of PBS only (200 μl PBS per mouse). 1h later all mice were subjected to an injection of LPS (Sigma, USA) at a concentration of 50 μg/200 μL per mouse (250 ng/μL). All mice were closely monitored and euthanized after 2h by CO2 inhalation. […]
For measuring TNFα release, Mouse TNF-α Uncoated ELISA Kit (Invitrogen, USA) was used. […] The color reaction was stopped by the addition of 100 μl 2N sulfuric acid (Sigma, USA) and the ELISA plate was read at the wavelength of 450 nm using a Multiskan Titertek Plate reader (VWR, USA).

[2] = biological target: T1, human iRhom2 variant hiR2-FL-K536A-T7 (Homo sapiens, UniProt Q6PJF5, K536A); assay: FACS epitope mapping on MEF-DKO-hiR2-FL-K536A-T7 cells; format: binding; settings: antibody at 3 μg/ml, compared with MEF-DKO-hiR2-FL-WT-T7 cells
T1 construct: expressed in transfected cells; host or cells: immortalized iRhom1/2-/- DKO mouse embryonic fibroblasts, pMSCV retroviral infection
T1 sequence (Q6PJF5 1-856 K536A): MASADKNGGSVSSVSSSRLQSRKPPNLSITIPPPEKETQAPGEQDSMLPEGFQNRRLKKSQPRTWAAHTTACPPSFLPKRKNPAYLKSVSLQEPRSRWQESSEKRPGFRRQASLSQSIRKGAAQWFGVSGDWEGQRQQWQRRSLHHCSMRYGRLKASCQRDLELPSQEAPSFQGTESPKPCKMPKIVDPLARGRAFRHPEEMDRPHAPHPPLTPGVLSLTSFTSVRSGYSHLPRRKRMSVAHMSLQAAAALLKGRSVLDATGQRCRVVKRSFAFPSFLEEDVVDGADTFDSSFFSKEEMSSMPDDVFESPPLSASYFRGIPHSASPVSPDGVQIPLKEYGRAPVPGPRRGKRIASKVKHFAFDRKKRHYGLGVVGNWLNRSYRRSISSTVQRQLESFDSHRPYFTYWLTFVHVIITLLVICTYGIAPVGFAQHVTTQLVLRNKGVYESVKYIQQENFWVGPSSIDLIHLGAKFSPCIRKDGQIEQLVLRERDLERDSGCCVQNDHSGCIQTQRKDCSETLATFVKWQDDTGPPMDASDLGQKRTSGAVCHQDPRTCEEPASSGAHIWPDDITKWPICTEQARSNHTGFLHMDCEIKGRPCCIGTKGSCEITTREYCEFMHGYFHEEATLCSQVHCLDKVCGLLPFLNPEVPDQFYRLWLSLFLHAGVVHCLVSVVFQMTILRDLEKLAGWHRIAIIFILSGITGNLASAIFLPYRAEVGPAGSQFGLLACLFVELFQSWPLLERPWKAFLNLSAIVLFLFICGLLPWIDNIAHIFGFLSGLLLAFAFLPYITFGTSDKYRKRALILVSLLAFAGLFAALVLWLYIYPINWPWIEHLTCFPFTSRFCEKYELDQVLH
Description: This example describes the generation of iRhom1/2−/− DKO MEF populations expressing the 137 single amino acid substitution or deletion variants as well as their characterization in terms of cell surface localization and functional activity as indicators of proper protein conformation. Subsequently, binding analyses of the humanized antibodies 16-B-03, 16-B-05, 16-B-07, 23-B-04, 42-B-02 and 42-B-04 of the invention on the entire panel of 137 engineered MEF populations expressing human iRhom2 variants with single amino acid substitutions or deletions are described.
In brief, on day 1, Phoenix-ECO cells (American Type Culture Collection, USA) were seeded on 6-well tissue culture plates (Greiner, Germany) in standard growth medium at 8×10^5 cells per well and kept overnight at 37° C., 5% CO2. On day 2, the medium was replaced by fresh medium supplemented with chloroquine (Sigma-Aldrich, USA) at a final concentration of 25 μM. […]

effect of substitution of lysine 536 of human iRhom2 by alanine on antibody binding (MEF-DKO-hiR2-FL-K536A-T7 cells) [2]: strongly impairs
B1: 42-B-02: humanized antibody binding human iRhom2; HCVD SEQ ID NO 33, LCVD SEQ ID NO 37 (antibody, V domains shown)
VH: QVTLRESGPALVKPTQTLTLTCTFSGFSLSTFGRGVGWIRQPPGKALEWLAHIWWDDEKYYNSALKSRLTISKDTSKNQVVLTITNMDPVDTATYYCARIQNYGSNYWYFDVWGQGTLVTVSS
VL: AIQLTQSPSSLSASVGDRVTITCRASSRISYMFWYQQKPGKAPKVLIYDTSNLASGVPSRFSGSGSGTDYTLTISSLQPEDFATYYCQQWNSYPLTFGQGTKLEIK
modifications: antibody sequences
LPS-induced release of TNFα in serum of genetically humanized mice, percent release (buffer treated control animals set to 100%) [1]: 17.3%
